Measurements reported in patent US20230414780A1 (VECT HORUS, published 2023).

Columns and labels:
[1] = target: T1, mouse transferrin receptor (mTfR) fused to EGFP, on CHO cells (mouse, UniProt Q62351 1-763); assay: flow cytometry, CHO cells
T1 construct: whole, on cells; also called mouse TfR; CHO-mTfR-EGFP; not shown: EGFP
Experimental: The binding properties of VHHs with affinity for the TfR from different species (i.e., human (h), mouse (m) and rhesus monkey (rh)) were tested using flow cytometry, and apparent affinities (Kd app) were determined. All experiments were performed in 96 well plates using 2×10⁵ cells/well, at 4° C. with shaking. CHO cell lines expressing the hTfR, mTfR or rhTfR fused to EGFP were saturated with PBS/BSA 2% solution during 30 min to avoid nonspecific binding, followed by incubation with purified VHHs at increasing concentrations for 1 hr. After one wash in PBS/BSA 2%, cells were incubated for 1 hr with an anti-6His tag antibody (mouse), washed twice with PBS/BSA 2%, and incubated for 1 hr with an Alexa647-conjugated anti-mouse secondary antibody. After two last washes in PBS/BSA 2%, cells were fixed by incubation for 15 min with PBS/PFA 2%, washed once with PBS and finally resuspended in PBS. Fluorescence levels were assessed using an Attune NxT flow cytometer (Thermo Fisher Scientific). Experimental data were fitted with GraphPad Prism® software using a nonlinear fit to determine the apparent Kd constants. […] Table 5 hereafter summarizes apparent Kd obtained for the tested VHHs.

[2] = target: T2, human transferrin receptor (hTfR) fused to EGFP, on CHO cells (human, UniProt P02786 1-760); assay: apparent Kd, flow cytometry, CHO cells
T2 construct: whole, on cells; also called human TfR; CHO-hTfR-EGFP; not shown: EGFP from pEGFP-C1 vector, fused to the N-terminal (intracellular) end of hTfR
Summary of the method: (§1)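 CHO cells expressing TfR-EGFP fusions, blocked in PBS/BSA 2%, then incubated with increasing VHH concentrations for 1 hr at 4° C. Bound VHH detected via anti-6His antibody and Alexa647 secondary, cells PFA-fixed, read by flow cytometry. Apparent Kd from nonlinear fit.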

[3] = target: T3, human TfR ectodomain fused to a mouse IgG1 Fc fragment (human, UniProt P02786 89-760); assay: SPR, kinetic
T3 construct: extracellular domain; ectodomain fused to the N-terminal end of the Fc, made in-house; not shown: mouse IgG1 Fc fragment
Experimental: (§2) Binding properties of some VHHs were also evaluated using Surface Plasmon Resonance (SPR) experiments. The human, mouse and rhesus monkey TfR (having respectively GeneBank number NM_003234.2, NM_011638, NC_041755.1) ectodomains were fused to the N-terminal end of a mouse IgG1 Fc fragment and the recombinant proteins were produced and purified in-house. Interaction of VHHs with the receptors was tested using a Biacore T200 (GE Healthcare). Receptors were immobilized on an HC 1500M or a CM5 sensor chip (Xantec) either directly or on an anti-mouse IgG previously immobilized. VHHs were injected over flowcell by using the single-cycle kinetic or the multiple-cycle kinetic methods.

[4] = target: T4, rhesus monkey transferrin receptor (rhTfR) fused to EGFP, on CHO cells (rhesus monkey); assay: apparent Kd, flow cytometry, CHO cells
T4 construct: whole, on cells; also called rhesus monkey TfR
Summary of the method: as §1

[5] = target: T3, human TfR ectodomain fused to a mouse …; assay: SPR, at equilibrium
Experimental: as §2

[6] = target: T1, mouse transferrin receptor (mTfR) fused …; assay: apparent Kd, flow cytometry, CHO cells
Summary of the method: as §1

[7] = target: T5, rhesus monkey TfR ectodomain fused to a mouse IgG1 Fc fragment (rhesus monkey, UniProt I0FKY7 89-760); assay: SPR, kinetic
T5 construct: extracellular domain; not shown: mouse IgG1 Fc fragment
Experimental: as §2

[8] = target: T5, rhesus monkey TfR ectodomain fused to a …; assay: SPR, at equilibrium
Experimental: as §2

T3 sequence (P02786 89-760): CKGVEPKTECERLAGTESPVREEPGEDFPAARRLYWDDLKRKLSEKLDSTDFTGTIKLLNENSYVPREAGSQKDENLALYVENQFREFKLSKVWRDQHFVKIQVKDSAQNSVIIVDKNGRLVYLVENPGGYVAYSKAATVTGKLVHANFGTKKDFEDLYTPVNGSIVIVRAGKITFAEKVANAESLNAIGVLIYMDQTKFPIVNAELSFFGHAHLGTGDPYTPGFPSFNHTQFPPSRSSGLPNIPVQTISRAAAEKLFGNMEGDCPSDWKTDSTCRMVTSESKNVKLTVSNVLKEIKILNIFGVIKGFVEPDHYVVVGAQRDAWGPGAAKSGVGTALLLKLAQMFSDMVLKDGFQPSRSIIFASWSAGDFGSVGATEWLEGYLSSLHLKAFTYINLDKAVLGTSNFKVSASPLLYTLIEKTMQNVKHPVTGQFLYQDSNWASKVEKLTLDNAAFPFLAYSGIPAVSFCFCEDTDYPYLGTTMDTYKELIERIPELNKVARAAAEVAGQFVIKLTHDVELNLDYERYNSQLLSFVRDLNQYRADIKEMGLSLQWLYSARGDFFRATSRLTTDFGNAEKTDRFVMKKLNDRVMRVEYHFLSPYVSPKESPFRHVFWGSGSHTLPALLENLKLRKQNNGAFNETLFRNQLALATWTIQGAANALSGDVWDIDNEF
T2 sequence (P02786 whole entry, the tested form may be a part): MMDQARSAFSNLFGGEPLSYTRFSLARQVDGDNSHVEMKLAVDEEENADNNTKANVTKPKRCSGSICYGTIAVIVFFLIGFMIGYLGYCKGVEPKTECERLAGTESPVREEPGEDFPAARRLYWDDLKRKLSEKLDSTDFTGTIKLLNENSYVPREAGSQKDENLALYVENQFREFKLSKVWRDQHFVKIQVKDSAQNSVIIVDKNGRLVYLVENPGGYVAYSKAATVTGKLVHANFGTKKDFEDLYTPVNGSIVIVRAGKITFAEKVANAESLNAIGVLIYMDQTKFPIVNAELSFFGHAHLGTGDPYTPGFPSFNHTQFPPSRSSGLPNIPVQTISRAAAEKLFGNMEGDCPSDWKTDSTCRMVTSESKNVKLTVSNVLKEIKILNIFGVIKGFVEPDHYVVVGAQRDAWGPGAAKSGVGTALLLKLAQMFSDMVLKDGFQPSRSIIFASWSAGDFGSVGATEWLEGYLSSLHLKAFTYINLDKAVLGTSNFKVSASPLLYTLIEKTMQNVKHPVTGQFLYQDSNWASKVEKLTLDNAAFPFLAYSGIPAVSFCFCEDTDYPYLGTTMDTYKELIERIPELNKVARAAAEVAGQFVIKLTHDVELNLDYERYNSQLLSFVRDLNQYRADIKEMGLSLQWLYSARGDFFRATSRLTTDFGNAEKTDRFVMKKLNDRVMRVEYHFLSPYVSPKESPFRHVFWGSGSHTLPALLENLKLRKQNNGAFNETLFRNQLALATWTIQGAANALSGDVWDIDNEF
T1 sequence (Q62351 whole entry, the tested form may be a part): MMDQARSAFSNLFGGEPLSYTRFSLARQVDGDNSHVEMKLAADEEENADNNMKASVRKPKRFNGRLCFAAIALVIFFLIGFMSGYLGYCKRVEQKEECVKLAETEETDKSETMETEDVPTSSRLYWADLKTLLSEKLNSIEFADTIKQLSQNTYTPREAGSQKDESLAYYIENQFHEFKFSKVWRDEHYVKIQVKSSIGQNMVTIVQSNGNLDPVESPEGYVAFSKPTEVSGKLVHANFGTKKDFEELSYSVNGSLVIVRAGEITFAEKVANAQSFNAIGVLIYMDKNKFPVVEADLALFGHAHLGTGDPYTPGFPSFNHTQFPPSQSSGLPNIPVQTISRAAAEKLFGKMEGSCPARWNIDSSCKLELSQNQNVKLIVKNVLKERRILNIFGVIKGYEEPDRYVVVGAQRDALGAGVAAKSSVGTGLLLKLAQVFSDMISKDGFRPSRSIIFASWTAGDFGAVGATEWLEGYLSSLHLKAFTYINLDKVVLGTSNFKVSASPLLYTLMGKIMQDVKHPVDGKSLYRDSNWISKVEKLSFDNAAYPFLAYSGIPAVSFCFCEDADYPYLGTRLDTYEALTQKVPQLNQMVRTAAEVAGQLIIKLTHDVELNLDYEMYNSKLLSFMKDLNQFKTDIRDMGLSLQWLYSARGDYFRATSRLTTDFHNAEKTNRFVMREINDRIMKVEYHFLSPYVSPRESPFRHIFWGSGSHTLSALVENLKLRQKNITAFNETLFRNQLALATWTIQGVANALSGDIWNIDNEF

Binder	binding result [1]	Kd [2] [nM]	Kd [3] [nM]	koff [3] [s⁻¹]	kon [3] [M⁻¹ s⁻¹]	Kd [4] [nM]	Kd [5] [nM]	Kd [6] [nM]	Kd [7] [nM]	koff [7] [s⁻¹]	kon [7] [M⁻¹ s⁻¹]	Kd [8] [nM]
C5^neg (control) (VHH, negative control of C5 with 2 alanines in CDR3) VHH: EVQLVESGGGVVQPGGSLKLSCVASGTDFSINFIRWYRQAPGKQREFVAGFTATGNTNYADSMKGRFTISRDNTKNAVYLQIDSLKPEDTAVYYCAMADKWGQGTQVTVSS	no binding											
B7 (VHH) VHH: QVQLVQSGGGLVQAGGSLTLSCTASGRPLSDYPMGWFRRAPEKERELVASISRTGDGTYYADGMRGRFTISRDNSENTVSLQMNNLKPEDTAVYYCGAGINPTKYWGQGTQVTVSS	no binding	1.9	0.652	0.000758	1.16e+06							
H7 (VHH) VHH: EVQLVESGGGLVQAGGSLRLSCTASGRPISDYPMGWFRRAPGKDRELVASISRTGDGTYYANSMKERFTISRDNAQNTVSLQISSLKPEDTAVYYCGAGINPTRYWGQGTQVTVSS	no binding		1.3	0.00147	1.13e+06							
C3 (VHH) VHH: EVQLVQSGGGLVQAGGSLRLSCAASGRDFSDTSMAWHRQAPGKERLWVAGIRSGSTSTSYADSVKGRFTISRDDAKNTVYLQMDNLTPEDTAVYFCYSKGYWGQGTQVTVSS	no binding		0.559	0.00249	5.9e+06	4230						
B8^V22 (VHH) VHH: EVQLVESGGGVVQPGGSLRLSCAASGEIFSINQMRWYRQAPGKQREWVAGFTRDGSTNYPDSAKGRFTISRDNAKNTVYLQIDSLKPEDTAVYYCYMLDTWGQGTQVTVSS	no binding	321	475		698000	971	480					
B8^V24 (VHH) VHH: EVQLVESGGGVVQPGGSLRLSCAASGEIFSINFMEWYRQAPGKQREWVAGFTRDGSTNYPDSAKGRFTISRDNAKNTVYLQIDSLKPEDTAVYYCYMLDTWGQGTQVTVSS	no binding	1010										
B8^V37 (VHH) VHH: EVQLVESGGGVVQPGGSLRLSCAASGEIFSINFMRWYRQAPGKQREWVAGFTRDGSTNYPDSAKGRFTISEDNAKNTVYLQIDSLKPEDTAVYYCYMLRTWGQGTQVTVSS		97	70.5	0.0493	699000	334	75.5	582	148	0.103	700000	175
B8^V39 (VHH) VHH: EVQLVESGGGVVQPGGSLRLSCAASGEIFKINFMRWYRQAPGKQREWVAGFTRDGSTNYPDSAKGRFTISRDNAKNTVYLQIDSLKPEDTAVYYCYMLDTWGQGTQVTVSS		16	39.1	0.0175	448000	200	40.3	1290	90.5	0.0327	362000	93.3
B8^V40 (VHH) VHH: EVQLVESGGGVVQPGGSLRLSCAASGEIKSINFMRWYRQAPGKQREWVSGFTRDGSTNYPDSAKGRFTISRDNAKNTVYLQIDSLKPEDTAVYYCYMLDTWGQGTQVTVSS		42	42.1	0.0283	672000	69	42.5	1580	34.8	0.02	575000	39.8
B8^V38 (VHH) VHH: EVQLVESGGGVVQPGGSLRLSCAASGEIRSINFMRWYRQAPGKQREWVAGFTRTGSTNYPDSAKGRFTISRDNAKNTVYLQIDSLKPEDTAVYYCYMLDTWGQGTQVTVSS		23	32.2	0.0192	596000	123	35.8	1780	46.3	0.0255	549000	55.4
E2 (VHH) VHH: QVQLVQSGGGLVQAGGSLRLSCAASGSIFSDITLAWHRQIPGKEREWVAGISRSGSPSYRDSVKGRFTISRDNAKNTVFLQMNSLEPEDTGVYYCYSRGYWGQGTQVTVSS	no binding	2.5										
F2a (VHH) VHH: EVQLVESGGGLVQPGESLRLSCTASESISIYGVGWYRQAPGEQRVLVAHLKRNGLTEYKDSVKGRFTISRDNARNTIYLEMKNLKPEDTAIYYCNTALGSVLPWGRGTQVTVSS	no binding	2.9	0.545	0.000752	1.39e+06							
VHH C (B6) (VHH) VHH: EVQLVESGGGLVQPGGSLRLSCTASGGPIEQYPMGWFRRAPGKERELVASISRSGDGTYYAISSVKGRFTISRDNAENTVFLQMNSLKPDDTAVYYCGAGINPTKIWGQGTQVTVSS	no binding	2.1	0.659	0.00121	1.73e+06							
E4 (VHH) VHH: EVQLVESGGGLVQAGDSLRLSCTASGLPLSNYPMGWFRRAPGKERELIASISRTGDGTYYADSSVKGRFTISRDNAENTVSLQMNSLKPEDTAVYYCGAGINPTKYWGQGTQVTVSS	no binding	3.1	1.25	0.00189	1.51e+06							
B6^V2 (VHH) VHH: EVQLVESGGGLVQPGGSLRLSCTASGGPIEQYPMGWFRRAPGKERELVASFSRSGDGTYYAISSVKGRFTISRDNAENTVFLQMNSLKPDDTAVYYCGAGINPTKIWGQGTQVTVSS	no binding	643										
B6^V1 (VHH) VHH: EVQLVESGGGLVQPGGSLRLSCTASGGPIEQYPMGWFRRAPGKERNLVASISRSGDGTYYAISSVKGRFTISRDNAENTVFLQMNSLKPDDTAVYYCGAGINPTKIWGQGTQVTVSS	no binding	2.3										
B6^V3 (VHH) VHH: EVQLVESGGGLVQPGGSLRLSCTASGGPIEQYPMGWFRRAPGKERELVASSSRSGDGTYYAISSVKGRFTISRDNAENTVFLQMNSLKPDDTAVYYCGAGINPTKIWGQGTQVTVSS	no binding	2.6										
B6^V4 (VHH) VHH: EVQLVESGGGLVQPGGSLRLSCTASGGPIEQYPMGWFRRAPGKERESVASISRSGDGTYYAISSVKGRFTISRDNAENTVFLQMNSLKPDDTAVYYCGAGINPTKIWGQGTQVTVSS	no binding	5.9										
C12b (VHH) VHH: QVQLVQSGGGLVQPGGSLRLSCAASGFTFSAYAMSWVRQAPGKGRELVASISRTGDGTYYADGMKGRFTISRDNAENTVSLQINSLKPEDTAIYYCGAGINPTKYWGQGTQVTVSS	no binding	630					2440					
